Data from EP4585619A1 (Cichlid Inc., dated 2025).

Tests used:
[1] = target: T1, human VISTA protein (hVISTA-Fc, R&D Systems, Cat. No. 7126-B7) (human, UniProt Q9H7M9 33-194); experiment: ELISA on coated hVISTA-Fc, antibody at 100 ng per well
T1 construct: Bought recombinant protein; not shown: Fc part of the bought fusion protein
T1 sequence (looked up): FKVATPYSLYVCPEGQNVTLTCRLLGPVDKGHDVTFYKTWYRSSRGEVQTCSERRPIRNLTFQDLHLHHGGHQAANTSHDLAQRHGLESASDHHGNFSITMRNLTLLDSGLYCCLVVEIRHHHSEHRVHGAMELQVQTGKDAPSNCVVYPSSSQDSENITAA

[2] = target: T2, mouse VISTA protein (mVISTA-Fc, R&D Systems, Cat. No. 7005-B7) (mouse, UniProt Q9D659 33-191); experiment: ELISA on coated mVISTA-Fc
T2 construct: Bought recombinant protein; not shown: Fc part of the bought fusion protein
T2 sequence (looked up): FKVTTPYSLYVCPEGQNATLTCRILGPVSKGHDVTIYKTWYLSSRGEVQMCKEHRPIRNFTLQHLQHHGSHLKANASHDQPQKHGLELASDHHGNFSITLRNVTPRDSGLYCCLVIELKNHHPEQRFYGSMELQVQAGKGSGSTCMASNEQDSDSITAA

[3] = target: T3, human VISTA protein overexpressed in the NIH/3T3 cell line (human, UniProt Q9H7M9 33-311); experiment: cell ELISA of scFv on VISTA-expressing NIH/3T3 cells, anti-HA HRP
T3 construct: whole, on cells; Gene cloned into pCMV3-C-FLAG (Sino Biological), so a C-terminal FLAG tag is likely; On whole cells in ELISA and flow cytometry; as sonicated lysate in immunoprecipitation; as reduced, boiled RIPA lysate in the western blot; also called VISTA/NIH/3T3 cell line; VISTA-expressing cell line
T3 sequence (looked up): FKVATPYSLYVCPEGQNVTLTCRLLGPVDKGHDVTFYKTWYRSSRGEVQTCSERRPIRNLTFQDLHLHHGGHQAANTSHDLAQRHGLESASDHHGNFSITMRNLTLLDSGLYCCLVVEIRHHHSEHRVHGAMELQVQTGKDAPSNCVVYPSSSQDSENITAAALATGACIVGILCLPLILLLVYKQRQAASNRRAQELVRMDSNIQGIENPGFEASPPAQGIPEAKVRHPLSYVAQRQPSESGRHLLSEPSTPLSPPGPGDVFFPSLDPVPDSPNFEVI

B1: 4A2 full IgG1 antibody (antibody, V domains shown)
VH: EVQLLESGGGLVQPGGSLRLSCAASGFTFSNYAMSWVRQAPGKGLEWVSEISHSGTTNYNPSLKSRFTISRDNSKNTLYLQMNSLRAEDTAVYYCTRAIWGFDYWGQGTLVTVSS
VL: QSVLTQPPSASGTPGQRVTISCSRENIGSRSVHWYQQLPGTAPKLLIYDNNERASGVPNRFSGSKSGTSASLAISGLRSEDEADYYCQAWDSSTAVFGGGTKLTVLR
notes: scFv clone converted to full IgG1, made in CHO-S cells; also called 4A2 antibody; anti-VISTA antibody
B1: binds [1]; no binding (tested: 100 ng per well) [2].

B2: 4A2 scFv (scFv, V domains shown)
VH: EVQLLESGGGLVQPGGSLRLSCAASGFTFSNYAMSWVRQAPGKGLEWVSEISHSGTTNYNPSLKSRFTISRDNSKNTLYLQMNSLRAEDTAVYYCTRAIWGFDYWGQGTLVTVSS
VL: QSVLTQPPSASGTPGQRVTISCSRENIGSRSVHWYQQLPGTAPKLLIYDNNERASGVPNRFSGSKSGTSASLAISGLRSEDEADYYCQAWDSSTAVFGGGTKLTVL
notes: One-chain scFv with an HA tag from a synthetic human scFv library, made in E. coli
B2: binds [3].

B3: 4G3 full IgG1 antibody (antibody, V domains shown)
VH: EVQLLESGGGLVQPGGSLRLSCVASGFTFSEKSIHWVRQAPGKGLEWVSGTSANTGNTYYADSVKGRFTISRDNSKNTLYLQMNSLRAEDTAVYYCAHHNWAGYFDYWGQGTLVTVSS
VL: EIVLTQSPGILSLSPGERATLSCQASHAISNYINWYQQKPGQAPRLLIYDASNRATGIPDRFSGSGSGTDFTLTISRLEPEDFAVYYCQQSNSFPYTFGQGTKVEIKR
notes: scFv clone converted to full IgG1, made in CHO-S cells; also called anti-VISTA antibody
B3: binds [1]; no binding (tested: 100 ng per well) [2].

B4: 4G3 scFv (scFv, V domains shown)
VH: EVQLLESGGGLVQPGGSLRLSCVASGFTFSEKSIHWVRQAPGKGLEWVSGTSANTGNTYYADSVKGRFTISRDNSKNTLYLQMNSLRAEDTAVYYCAHHNWAGYFDYWGQGTLVTVSS
VL: EIVLTQSPGILSLSPGERATLSCQASHAISNYINWYQQKPGQAPRLLIYDASNRATGIPDRFSGSGSGTDFTLTISRLEPEDFAVYYCQQSNSFPYTFGQGTKVEIK
notes: as for B2
B4: binds [3].

B5: 4H2 full IgG1 antibody (antibody, V domains shown)
VH: EVQLLESGGGLVQPGGSLRLSCAASGFTFSTAWMSWVRQAPGKGLEWVSRVNPSDSHTDYSPSFQDRFTISRDNSKNTLYLQMNSLRAEDTAVYYCARVPPGYGFDIWGQGTLVTVSS
VL: EIVLTQSPGTLSLSPGERATLSCQASQDITNYLNWYQQKPGQAPRLLIYDASNRATGIPDRFSGSGSGTDFTLTISRLEPEDFAVYYCQQSYSTPFTFGQGTKVEIKR
notes: as for B3
B5: binds [1]; no binding (tested: 100 ng per well) [2].

B6: 4F2 scFv (scFv, V domains shown)
VH: EVQLLESGGGLVQPGGSLRLSCAASGFTFSDYYMHWVRQAPGKGLEWVSEIIPIFDTANYAQKFQDRFTISRDNSKNTLYLQMNSLRAEDTAVYYCARSTGDYFDYWGQGTLVTVSS
VL: QSVLTQPPSASGTPGQRVTISCSGDKLGNKYTSWYQQLPGTAPKLLIYDNNKRPSGVPDRFSGSKSGTSASLAISGLRSEDEADYYCGTWDSSLSAYVFGGGTKLTVL
notes: as for B2
B6: binds [3].

B7: 4F2 full IgG1 antibody (antibody, V domains shown)
VH: EVQLLESGGGLVQPGGSLRLSCAASGFTFSDYYMHWVRQAPGKGLEWVSEIIPIFDTANYAQKFQDRFTISRDNSKNTLYLQMNSLRAEDTAVYYCARSTGDYFDYWGQGTLVTVSS
VL: QSVLTQPPSASGTPGQRVTISCSGDKLGNKYTSWYQQLPGTAPKLLIYDNNKRPSGVPDRFSGSKSGTSASLAISGLRSEDEADYYCGTWDSSLSAYVFGGGTKLTVLR
notes: as for B3
B7: binds [1]; no binding (tested: 100 ng per well) [2].

B8: 4A3 full IgG1 antibody (antibody, V domains shown)
VH: EVQLLESGGGLVQPGGSLRLSCAASGFTFSNYYMHWVRQAPGKGLEWVSSISFTGSTSYNPSLKSRFTISRDNSKNTLYLQMNSLRAEDTAVYYCARLGIPFFTYLDYWGQGTLVTVSS
VL: QSVLTQPPSASGTPGQRVTISCGGNNIGSKSVHWYQQLPGTAPKLLIYEDTERPSGVSDRFSGSKSGTSASLAISGLRSEDEADYYCQAWDSSTVVFGGGTKLTVLR
notes: as for B3
B8: binds [1]; no binding (tested: 100 ng per well) [2].

B9: 4A3 scFv (scFv, V domains shown)
VH: EVQLLESGGGLVQPGGSLRLSCAASGFTFSNYYMHWVRQAPGKGLEWVSSISFTGSTSYNPSLKSRFTISRDNSKNTLYLQMNSLRAEDTAVYYCARLGIPFFTYLDYWGQGTLVTVSS
VL: QSVLTQPPSASGTPGQRVTISCGGNNIGSKSVHWYQQLPGTAPKLLIYEDTERPSGVSDRFSGSKSGTSASLAISGLRSEDEADYYCQAWDSSTVVFGGGTKLTVL
notes: as for B2
B9: binds [3].

B10: 4D2 scFv (scFv, V domains shown)
VH: EVQLLESGGGLVQPGGSLRLSCAASGFTFSSYWIAWVRQAPGKGLEWVSTISGSGGYTYYAESVKGRFTISRDNSKNTLYLQMNSLRAEDTAVYYCARDSSGWLNYWGQGTLVTVSS
VL: EIVLTQSPGTLSLSPGERATLSCRASQSITSHLAWYQQKPGQAPRLLIYDASNRATGIPDRFSGSGSGTDFTLTISRLEPEDFAVYYCQQYNNWPPITFGQGTKVEIK
notes: as for B2
B10: binds [3].

B11: 4D2 full IgG1 antibody (antibody, V domains shown)
VH: EVQLLESGGGLVQPGGSLRLSCAASGFTFSSYWIAWVRQAPGKGLEWVSTISGSGGYTYYAESVKGRFTISRDNSKNTLYLQMNSLRAEDTAVYYCARDSSGWLNYWGQGTLVTVSS
VL: EIVLTQSPGTLSLSPGERATLSCRASQSITSHLAWYQQKPGQAPRLLIYDASNRATGIPDRFSGSGSGTDFTLTISRLEPEDFAVYYCQQYNNWPPITFGQGTKVEIKR
notes: as for B3
B11: binds [1]; no binding (tested: 100 ng per well) [2].

B12: 4H2 scFv (scFv, V domains shown)
VH: EVQLLESGGGLVQPGGSLRLSCAASGFTFSTAWMSWVRQAPGKGLEWVSRVNPSDSHTDYSPSFQDRFTISRDNSKNTLYLQMNSLRAEDTAVYYCARVPPGYGFDIWGQGTLVTVSS
VL: EIVLTQSPGTLSLSPGERATLSCQASQDITNYLNWYQQKPGQAPRLLIYDASNRATGIPDRFSGSGSGTDFTLTISRLEPEDFAVYYCQQSYSTPFTFGQGTKVEIK
notes: as for B2
B12: binds [3].
